Experimental data from publication PMC9514091, “Discovery of the first PD-1 ligand encoded by a pathogen” (Frontiers in Immunology, 2022).

Target: T1, host PD-1-Fc fusion protein ( ('host'; the dolphin PD-1 of …)
T1 chain: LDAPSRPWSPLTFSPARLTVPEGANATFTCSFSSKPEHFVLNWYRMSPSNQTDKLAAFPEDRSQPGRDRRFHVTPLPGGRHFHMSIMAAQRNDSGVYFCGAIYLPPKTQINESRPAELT
Assay: SPR; Biacore T200, 25°C; PD-1-Fc amine-coupled to a CM4 chip (acetate buffer pH 6.5); De2-Fc or PD-L1-Fc as analytes at 0-400 nM in PBS with 0.05% Tween, 30 µL/min; 1:1 Langmuir model
Details: both partners purified

B1: host PD-L1-Fc fusion protein (Fc fusion)
chain: FTITVPKDLYVVEYGSNVTLECRFPVDKQLNLLALVVYWEMEDKKIIQFVNGEEDLNVQHSSYNQRALLLKNQLPLGKAALQITDVKLQDAGIYCCLISYGGADYKRITLKVNASYRKINQTISVDPVTSEHELMCQAEGYPEAEVIWTSSDHRVLSGKTTITSSKREEKLFNVTSTLRINTTANEIFYCIFRRLGHEENSTAELV
**Q.** Which Kd does the source give for B1 here?
**A.** 6.2 nM
